The target in test [1] is T1, 22 amino acid CALRmut-specific peptide (acetylation of the terminal amino-group; C-terminal -OH group).
T1 construct: also called 22aa CALRmut peptide; CALRmut target peptide
T1 peptide: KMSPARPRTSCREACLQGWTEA
The test can be described thus: phage ELISA; QC ELISA of soluble Fab-AP. Background: ELISA stands for enzyme-linked immunosorbent assay.

Test [2] has as its target T2, HIS-CALRdel52 (produced in E. coli).
T2 construct: also called recombinant CALRdel52 protein; CALRdel53 target protein
T2 chain: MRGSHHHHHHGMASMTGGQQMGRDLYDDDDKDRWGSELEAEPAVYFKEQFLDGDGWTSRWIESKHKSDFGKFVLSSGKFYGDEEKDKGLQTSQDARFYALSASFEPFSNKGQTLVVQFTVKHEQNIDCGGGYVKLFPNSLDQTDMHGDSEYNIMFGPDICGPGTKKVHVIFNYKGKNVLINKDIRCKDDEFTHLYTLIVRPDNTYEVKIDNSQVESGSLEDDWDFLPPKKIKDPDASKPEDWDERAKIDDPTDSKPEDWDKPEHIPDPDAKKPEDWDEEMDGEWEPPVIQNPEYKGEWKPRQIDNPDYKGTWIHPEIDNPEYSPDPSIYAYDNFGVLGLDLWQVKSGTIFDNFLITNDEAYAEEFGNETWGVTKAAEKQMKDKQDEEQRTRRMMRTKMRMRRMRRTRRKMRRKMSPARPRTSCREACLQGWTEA
The test can be described thus: QC monoclonal phage ELISA. The text has this:
Next, recombinant CALRdel52 protein (SEQ ID NO: 5) and the 22 amino acid CALRmut peptide (SEQ ID NO: 1) were used for selecting specific binders from the immune rabbit/human Fab library prepared above. By DNA sequencing, 15 unique Fabs were identified and specific binding to the CALRmut target peptide was confirmed by phage ELISA and by QC ELISA after soluble expression of Fab-AP (Fab-conjugated to Alkaline Phosphatase).

B1: Clone 20 (Fab, V domains shown)
VH: QSLEESGGRLVTPGTPLTLTCTVSGIDLSNNAISWVRQAPGKGLEYIGVIGNTGDTYYASWAKGRFTISKTSSTTVDLKMTSLTTEDTATYFCVRGPPSYSNSVKNIWGPGTLVTISS
VL: DPMLTQTPSSVSAAVGGTVTIGCQSSQSVYDKNWLSWYQQKPGQPPSRLIYDASKLESGVPSRFSGSGSGTQFTLTISGVQCDDAATYYCAGGFTGNVYAFGGGTKLEIK
notes: Rabbit/human chimeric Fab (human CH1, CK) on phage; also soluble Fab-AP
Regarding B1, the binding result in test [1] is recorded as “binds”. In addition, in test [2], the “phage ELISA signal (Coating: CALR)” value was found to be 2.69.

B2: Clone 15 (Fab, V domains shown)
VH: QQLEESGGRLVTPGTPLTLTCTVSGIDLSNNAISWVRQAPGKGLEYIGVIGNTGTTYYASWAKGRFTISKTSSTTVDLKMTSLTASDTATYFCVRGPPSYSNSVKNIWGPGTLVTISS
VL: DVVMTQTPSSVSAAVGGTVTINCQSSQSVYNNNWLSWLQQKPGQPPNRLIYDASKLESGVPSRFSGSGSGTQFTLTISGVQCDDAATYYCAGGFTGNVYTFGGGTEVVVK
notes: as for B1
Take B2: the binding result in test [1] is listed as “binds”.

B3: Clone 17 (Fab, V domains shown)
VH: QEQLEESGGRLVTPGTPLTLTCTVSGIDLSNNAMSWVRQAPGKGLEYIGVIGNTGTTYYANWAKGRFTISKTSSATVDLKMTSLTTDDTATYFCVRGPPSYSNSVKNIWGPGTLVTVSS
VL: DVMLTQTPSSVSAAVGGTVTINCQSSQSVYDKNWLSWLQQKPGQPPSRLIYDASKLESGVPSRFSGSGSGTQFTLTISGVQCDDAATYYCAGGFTGNVYTFGGGTKVVVK
notes: as for B1
Consider B3, for which, in test [1], the binding result was “binds”. Further, in test [2], the “phage ELISA signal (Coating: CALR)” value was found to be 2.23.

B4: Clone 10 (Fab, V domains shown)
VH: QSVEESGGRLVTPGTPLTLTCTVSGIDLSNNAISWVRQAPGKGLEYIGVIGNTGDTYYASWAKGRFTISKTSSTTVDLKMTSLTTEDTATYFCVRGPPSYSNSVKNIWGPGTLVTISS
VL: DPMLTQTPSSVSAAVGGTVTIGCQSSQSVYDKNWLSWYQQKPGQPPSRLIYDASKLESGVPSRFSGSGSGTQFTLTISGVQCDDVATYYCAGGFTGNVYAFGGGTEVVVK
notes: as for B1
As to B4, in test [1], the binding result was “binds”. Also, the “phage ELISA signal (Coating: CALR)” value in test [2] turned out to be 2.18.

B5: Clone 2 (Fab, V domains shown)
VH: QSVEESGGRLVTPGTPLTLTCTVSGIDLSNNAISWVRQAPGKGLEYIGVIGNTGTTYYASWAKGRFTISKTSSTTVDLKMTSLTASDTATYFCVRGPPSYSNSVKNIWGPGTLVTVSS
VL: DPMLTQTPSSVSAAVGGTVTIGCQSSQSVYDKNWLSWYQQKPGQPPSRLIYDASKLESGVPSRFSGSGSGTQFTLTIGGVQCDDAATYYCAGGFTGNVYAFGGGTKLEIK
notes: as for B1
For B5, the binding result in test [1] was “binds”. For the same molecule, the “phage ELISA signal (Coating: CALR)” value in test [2] worked out at 2.87.

B6: Clone 16 (Fab, V domains shown)
VH: QEQLKESGGRLVTPGTPLTLTCTASGFSLSNYYMSWVRQAPGKGLEWIGGISSRAGTWYASWAKGRFTISGTSTTMDLKITSPTTEDTATYFCARGLKIWGPGTLVTVSS
VL: DPVLTQTESPVSAAVGGTVTINCQASQSVYDDNNLAWYQQKPGQPPKRLIYPASTLASGVSSRFSGSGSGSQFTLTISDVQCDDAATYYCQGEFSCTSADCVAFGGGTEVVVK
notes: as for B1
In the case of B6, the binding result in test [1] is “binds”. The “phage ELISA signal (Coating: CALR)” value in test [2] was determined as 2.94.

B7: Clone 1 (Fab, V domains shown)
VH: QEQLKESGGRLVTPGTPLTLTCAVSGFSLDIYGMSWVRQAPGKGLEWIGIIYIEGITYYANWAKGRFTISKTSSTTLELKMTSLTTEDTAMYFCVAGVGRIWGPGTLVTVSS
VL: YVMMTQTPSSVSAAVGGTVTINCQASQSLYNNNNLAWFQQKPGQPPKRLIYPASTLASGVSSRFKGSGSGTQFTLTISDVQRDDAATYFCLGEFSCSSADCYAFGGGTEVVVK
notes: as for B1
Consider B7, for which the binding result in test [1] is “binds”. The “phage ELISA signal (Coating: CALR)” value in test [2] was 2.92.

B8: Clone 18 (Fab, V domains shown)
VH: QSVEESGGRLVTPGTPLTITCTVSGFSLSSYAMSWVRQAPGKGLEWIGVIDSGGTTYYATWAKSRFTISKTQTKVALKITSPTTEDTATYFCARESYAGYDGYGHPIPYGMDPWGPGTLVTVSS
VL: DVVMTQTPSSVSAAVGGTVTINCQASQSLYNNKNLAWYQQKPGQPPKLLIYYASALASGVSSRFKGSGSGTQFTLTISGVQCDDAATYYCQGEFNCNSADCNSFGGGTEVVVK
notes: as for B1
Take B8: in test [1], the binding result is reported as “binds”. The “phage ELISA signal (Coating: CALR)” value in test [2] stood at 1.91.

B9: Clone 4 (Fab, V domains shown)
VH: QEQLEESGGRLVTPGTPLTLTCKVSGIDLSNNAISWVRQAPGKGLEYIGVIGNTGDTYYASWAKGRFTISKTSSTTVDLKMTSLTTEDTATYFCVRGPPSYSNSVKNIWGPGTLVTISS
VL: DPMLTQTPSSVSAAVGGTVTINCQSSQSVYNNNWLSWLQQKPGQPPNRLIYDASKLESGVPSRFSGSGSGTQFTLTISGVQRDDAATYYCAGGFTGNVYTFGGGTEVVVK
notes: as for B1
As to B9, in test [1], the binding result was “binds”. In test [2], the “phage ELISA signal (Coating: CALR)” value turned out to be 2.54.

B10: Clone 22 (Fab, V domains shown)
VH: QQLEESGGRLVTPGTPLTLTCTVSGIDLSNNAMSWVRQAPGKGLEYIGVIGNTGTTYYASWAKGRFTISKTSSTTVDLKMTSLTTEDTATYFCVRGPPSYSNSVKNIWGPGTLVTIS
VL: DPVLTQTPSSVSAAVGGTVTINCQSSQSVYNNNWLSWLQQKPGQPPNRLIYDASKLESGVPSRFSGSGSGTQFTLTISGVQCDDAATYYCAGGFTGNVYTFGGGTEVVVK
notes: as for B1
As to B10, the binding result in test [1] is “binds”.

The values above are taken from US20260125457A1 (Janssen / Centocor, published 2026).
